Assays:
[1] = biological target: Q223R extracellular murine leptin receptor Fc (LepRec-Fc) chimera (murine) (UniProt P48356); experiment: SPR; BiaCore T200, CM5 chip; anti-mouse IgG1 amine-coupled (~2000 RU) captures LepRec-Fc from the concentrated supernatant (100-300 RU); leptin 1.25-60 nM as analyte; 25°C, HBS-EP buffer, 30 µl/min; 600 s association, 1000 s dissociation; global 1:1 Langmuir fit; mean of two experiments
[2] = biological target: WT extracellular murine leptin receptor Fc (LepRec-Fc) chimera (murine) (UniProt P48356); experiment: as above

Kd [1]: 84.3 pM | koff [1]: 0.000147 s⁻¹ | kon [1]: 1.75e+06 M⁻¹ s⁻¹ | Kd [2]: 64.7 pM | koff [2]: 0.000121 s⁻¹ | kon [2]: 1.76e+06 M⁻¹ s⁻¹
Substance: Recombinant murine leptin (from UniProt P41160 22-167) (ligand)
